From paper PMC7515736, “Genome-wide binding of [sequence]3 and AGAMOUS complexes determined by sequential DNA-affinity purification sequencing”

Key:
[1] = molecular target: SEP3Δtet (SEP3 splice variant);AG (AGAMOUS) (Arabidopsis thaliana;Arabidopsis …, UniProt F4I972;P17839 1-237;1-252, del161-174|); assay: EMSA; dimer; EMSA as in the authors' ref. 20 (buffer, salt, pH, temperature not given); Cy5 probes; unpurified wheat germ TnT proteins; details: protein: ivt;ivt; tags: C-terminal 3xFLAG;C-terminal 5xMyc; copies: 1;1; label: Cy5; blunt
[2] = molecular target: SEP3 (…3);AG (AGAMOUS) (Arabidopsis thaliana;Arabidopsis …, UniProt O22456;P17839 1-251;1-252, |); assay: EMSA; tetramer; EMSA as in the authors' ref. 20 (buffer, salt, pH, temperature not given); Cy5 probes; unpurified wheat germ TnT proteins; details: protein: ivt;ivt; tags: C-terminal 3xFLAG;C-terminal 5xMyc; copies: 1;1; label: Cy5; blunt
Chain of SEP3 (…3);AG (AGAMOUS) (O22456 whole entry, chain 1 of 2): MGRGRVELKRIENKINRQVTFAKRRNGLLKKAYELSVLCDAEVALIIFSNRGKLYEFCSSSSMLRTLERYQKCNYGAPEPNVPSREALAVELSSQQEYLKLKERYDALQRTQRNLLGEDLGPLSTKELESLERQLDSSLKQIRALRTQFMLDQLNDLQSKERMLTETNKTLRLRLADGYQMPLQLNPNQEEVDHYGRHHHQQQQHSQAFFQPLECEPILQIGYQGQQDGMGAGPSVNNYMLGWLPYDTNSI
Chain of SEP3 (…3);AG (AGAMOUS) (P17839 whole entry, chain 2 of 2): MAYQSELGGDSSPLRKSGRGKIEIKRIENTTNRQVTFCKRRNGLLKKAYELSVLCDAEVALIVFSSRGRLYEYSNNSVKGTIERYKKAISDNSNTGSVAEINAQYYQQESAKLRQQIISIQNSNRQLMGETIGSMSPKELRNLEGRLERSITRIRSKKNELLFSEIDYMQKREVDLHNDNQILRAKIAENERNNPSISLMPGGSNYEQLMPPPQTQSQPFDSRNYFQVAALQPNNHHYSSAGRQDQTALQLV

Chain of SEP3Δtet (SEP3 splice variant);AG (AGAMOUS) (P17839 other isoform, or with tags, fused parts or gaps del161-174| | mutant, chain 1 of 2): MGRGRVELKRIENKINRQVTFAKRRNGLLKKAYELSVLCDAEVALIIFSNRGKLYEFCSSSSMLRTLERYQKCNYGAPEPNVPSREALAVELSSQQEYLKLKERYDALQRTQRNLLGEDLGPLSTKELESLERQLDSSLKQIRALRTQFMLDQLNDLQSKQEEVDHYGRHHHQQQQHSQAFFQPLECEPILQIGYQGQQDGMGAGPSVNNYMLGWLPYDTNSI
Chain of SEP3Δtet (SEP3 splice variant);AG (AGAMOUS) (P17839 whole entry, stated change not applied, chain 2 of 2, canonical isoform): as the sequence (P17839 whole entry, chain 2 of 2) above

Binder	binding result [1]	binding result [2]
KNU +10 (96 bp) (dsDNA) DNA 1: AAACATAGAAACCTTCCATGTTTGGCAATTTCATCTTGGAAGTCAGTAGCTCTTGATTCACTCTCTCTTGTCTTCTTTGTGCATCACAAGAACAAC DNA 2: GTTGTTCTTGTGATGCACAAAGAAGACAAGAGAGAGTGAATCAAGAGCTACTGACTTCCAAGATGAAATTGCCAAACATGGAAGGTTTCTATGTTT	binds	binds
KNU -10 probe (86 bp) (dsDNA) DNA 1: GGTAAGAGAAACATAGAAACCTTCCATGTTTGGCAATTTCATCTTGGACTCTCTCTTGTCTTCTTTGTGCATCACAAGAACAACAA DNA 2: TTGTTGTTCTTGTGATGCACAAAGAAGACAAGAGAGAGTCCAAGATGAAATTGCCAAACATGGAAGGTTTCTATGTTTCTCTTACC		binds
KNU WT (dsDNA) DNA 1: GGTAAGAGAAACATAGAAACCTTCCATGTTTGGCAATTTCATCTTGGAACTTGATTCACTCTCTCTTGTCTTCTTTGTGCATCACAAGAACAACAA DNA 2: TTGTTGTTCTTGTGATGCACAAAGAAGACAAGAGAGAGTGAATCAAGTTCCAAGATGAAATTGCCAAACATGGAAGGTTTCTATGTTTCTCTTACC	binds	binds
KNU +10 probe (106 bp) (dsDNA) DNA 1: GGTAAGAGAAACATAGAAACCTTCCATGTTTGGCAATTTCATCTTGGAAGTCAGTAGCTCTTGATTCACTCTCTCTTGTCTTCTTTGTGCATCACAAGAACAACAA DNA 2: TTGTTGTTCTTGTGATGCACAAAGAAGACAAGAGAGAGTGAATCAAGAGCTACTGACTTCCAAGATGAAATTGCCAAACATGGAAGGTTTCTATGTTTCTCTTACC		binds
KNU -5 (96 bp) (dsDNA) DNA 1: AGAGGGTAAGAGAAACATAGAAACCTTCCATGTTTGGCAATTTCATCTTGGAACTTACTCTCTCTTGTCTTCTTTGTGCATCACAAGAACAACAAA DNA 2: TTTGTTGTTCTTGTGATGCACAAAGAAGACAAGAGAGAGTAAGTTCCAAGATGAAATTGCCAAACATGGAAGGTTTCTATGTTTCTCTTACCCTCT	binds	
KNU +5 (96 bp) (dsDNA) DNA 1: AGAGAAACATAGAAACCTTCCATGTTTGGCAATTTCATCTTGGAAGTCAGCTTGATTCACTCTCTCTTGTCTTCTTTGTGCATCACAAGAACAACA DNA 2: TGTTGTTCTTGTGATGCACAAAGAAGACAAGAGAGAGTGAATCAAGCTGACTTCCAAGATGAAATTGCCAAACATGGAAGGTTTCTATGTTTCTCT	binds	
KNU -10 (96 bp) (dsDNA) DNA 1: GAAAGAGGGTAAGAGAAACATAGAAACCTTCCATGTTTGGCAATTTCATCTTGGACTCTCTCTTGTCTTCTTTGTGCATCACAAGAACAACAAATA DNA 2: TATTTGTTGTTCTTGTGATGCACAAAGAAGACAAGAGAGAGTCCAAGATGAAATTGCCAAACATGGAAGGTTTCTATGTTTCTCTTACCCTCTTTC	binds	binds
